T1: 161-340
T1 construct: Expressed in E. coli
T1 GST fusion polypeptide: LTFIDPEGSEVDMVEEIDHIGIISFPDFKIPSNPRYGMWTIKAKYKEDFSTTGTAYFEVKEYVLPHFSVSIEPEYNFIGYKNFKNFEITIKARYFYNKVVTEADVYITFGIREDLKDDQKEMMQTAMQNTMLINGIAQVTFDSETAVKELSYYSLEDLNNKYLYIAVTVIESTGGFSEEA

T2: 481-660
T2 construct: Expressed in E. coli
T2 GST fusion polypeptide: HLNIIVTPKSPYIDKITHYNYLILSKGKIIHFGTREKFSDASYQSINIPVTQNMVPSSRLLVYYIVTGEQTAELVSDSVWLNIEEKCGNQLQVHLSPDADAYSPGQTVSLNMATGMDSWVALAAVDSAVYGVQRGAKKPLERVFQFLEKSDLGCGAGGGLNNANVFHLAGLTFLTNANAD

T3: 321-500
T3 construct: Expressed in E. coli
T3 GST fusion polypeptide: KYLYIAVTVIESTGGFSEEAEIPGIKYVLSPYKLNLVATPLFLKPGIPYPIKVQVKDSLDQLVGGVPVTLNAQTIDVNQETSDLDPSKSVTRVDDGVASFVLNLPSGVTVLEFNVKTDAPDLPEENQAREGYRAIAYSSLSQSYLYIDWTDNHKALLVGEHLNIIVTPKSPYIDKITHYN

T4: recombinant cynomolgus monkey C5 (cynomolgus monkey, UniProt P01031 20-1676 (human entry), limits assumed)
T4 construct: also called cynoC5
T4 chain: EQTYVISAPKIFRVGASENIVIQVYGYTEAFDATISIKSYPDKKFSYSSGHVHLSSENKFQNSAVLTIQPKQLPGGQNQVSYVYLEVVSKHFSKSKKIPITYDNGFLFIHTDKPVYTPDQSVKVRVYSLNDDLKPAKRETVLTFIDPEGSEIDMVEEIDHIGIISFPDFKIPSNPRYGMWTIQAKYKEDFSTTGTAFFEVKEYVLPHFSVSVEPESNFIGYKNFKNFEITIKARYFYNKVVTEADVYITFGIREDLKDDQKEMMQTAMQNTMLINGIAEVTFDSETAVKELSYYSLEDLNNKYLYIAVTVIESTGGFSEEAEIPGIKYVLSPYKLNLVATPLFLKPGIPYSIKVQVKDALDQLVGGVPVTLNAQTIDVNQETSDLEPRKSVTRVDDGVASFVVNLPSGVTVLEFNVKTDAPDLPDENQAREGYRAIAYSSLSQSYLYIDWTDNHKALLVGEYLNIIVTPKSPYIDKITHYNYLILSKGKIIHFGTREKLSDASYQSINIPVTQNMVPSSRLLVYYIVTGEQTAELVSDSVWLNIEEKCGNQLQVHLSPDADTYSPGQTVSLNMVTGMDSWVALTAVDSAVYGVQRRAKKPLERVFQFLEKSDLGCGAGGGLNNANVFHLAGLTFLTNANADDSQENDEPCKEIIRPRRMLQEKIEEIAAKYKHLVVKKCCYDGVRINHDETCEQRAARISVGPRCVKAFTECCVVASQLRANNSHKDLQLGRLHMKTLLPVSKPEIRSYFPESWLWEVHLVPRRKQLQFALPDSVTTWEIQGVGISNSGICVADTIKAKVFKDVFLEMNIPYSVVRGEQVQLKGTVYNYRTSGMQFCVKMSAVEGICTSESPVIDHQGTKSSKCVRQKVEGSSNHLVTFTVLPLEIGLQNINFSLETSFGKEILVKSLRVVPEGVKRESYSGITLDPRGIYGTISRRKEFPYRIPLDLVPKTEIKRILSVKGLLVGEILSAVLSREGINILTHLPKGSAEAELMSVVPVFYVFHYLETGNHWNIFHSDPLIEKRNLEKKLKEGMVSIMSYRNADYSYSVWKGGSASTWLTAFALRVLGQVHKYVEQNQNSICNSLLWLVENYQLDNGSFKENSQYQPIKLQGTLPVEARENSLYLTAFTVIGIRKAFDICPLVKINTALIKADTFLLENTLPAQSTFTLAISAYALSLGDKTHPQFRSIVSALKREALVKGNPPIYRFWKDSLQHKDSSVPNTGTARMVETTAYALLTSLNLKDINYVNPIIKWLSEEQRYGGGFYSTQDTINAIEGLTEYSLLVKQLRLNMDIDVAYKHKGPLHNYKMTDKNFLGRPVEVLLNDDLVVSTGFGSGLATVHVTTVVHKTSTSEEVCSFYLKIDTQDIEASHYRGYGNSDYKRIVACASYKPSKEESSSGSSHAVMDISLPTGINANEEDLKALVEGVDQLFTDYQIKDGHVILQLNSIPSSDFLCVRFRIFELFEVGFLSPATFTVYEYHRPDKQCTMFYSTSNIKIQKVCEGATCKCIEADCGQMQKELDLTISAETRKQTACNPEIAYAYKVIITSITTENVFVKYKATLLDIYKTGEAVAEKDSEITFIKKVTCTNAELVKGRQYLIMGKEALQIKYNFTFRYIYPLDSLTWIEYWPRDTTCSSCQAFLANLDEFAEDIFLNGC


Tests used:
161-340 = target: T1, 161-340; assay: Western blot of E. coli lysates expressing GST-fused C5 beta-chain fragments
Procedure: (§1) Anti-C5 monoclonal antibodies (MAbs) were tested for binding to C5 β-chain-derived peptides in Western blot analysis. […] The E. coli samples were harvested after incubation with 1 mM Isopropyl β-D-1-thiogalactopyranoside (IPTG) for 5 hours at 37° C., and centrifuged at 20000×g for 1 min to obtain pellets.

481-660 = target: T2, 481-660; assay: as above
Procedure: as §1

321-500 = target: T3, 321-500; assay: as above
Procedure: as §1

[1] = target: T4, recombinant cynomolgus monkey C5; assay: SPR (Biacore), 37C, pH 7.4, Ab captured on ProA/G
Procedure: To observe the cross-reactivity of anti-C5 antibodies against human C5 (hC5) and cynomolgus monkey C5 (cynoC5), BIACORE® kinetics analysis was performed.

[2] = target: T5, C5 peptide 52-124 fused to GST-tag (human, UniProt P01031 52-124); assay: summary drawing of the binding reactions to C5 beta-chain fragments
T5 construct: not shown: GST-tag (glutathione S-transferase); vector and linker not restated
T5 sequence (P01031 52-124): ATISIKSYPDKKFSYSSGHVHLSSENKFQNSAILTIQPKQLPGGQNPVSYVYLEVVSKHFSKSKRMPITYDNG

[3] = target: T6, C5 peptide 33-108 fused to GST-tag (human, UniProt P01031 33-108); assay: as above
T6 construct: not shown: GST-tag (glutathione S-transferase); vector and linker not restated
T6 sequence (P01031 33-108): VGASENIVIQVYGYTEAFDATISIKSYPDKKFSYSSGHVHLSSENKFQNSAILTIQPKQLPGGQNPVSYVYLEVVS

[4] = target: T7, C5 peptide 45-111 fused to GST-tag (human, UniProt P01031 45-111); assay: as above
T7 construct: not shown: GST-tag (glutathione S-transferase); vector and linker not restated
T7 sequence (P01031 45-111): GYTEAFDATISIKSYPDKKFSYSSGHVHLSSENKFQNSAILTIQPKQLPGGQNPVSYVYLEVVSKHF

[5] = target: T8, C5 peptide 45-124 fused to GST-tag (human, UniProt P01031 45-124); assay: as above
T8 construct: not shown: GST-tag (glutathione S-transferase); vector and linker not restated
T8 sequence (P01031 45-124): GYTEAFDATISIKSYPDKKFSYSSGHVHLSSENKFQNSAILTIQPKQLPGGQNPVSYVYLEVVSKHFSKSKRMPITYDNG

[6] = target: T9, C5 peptide 33-111 fused to GST-tag (human, UniProt P01031 33-111); assay: as above
T9 construct: not shown: GST-tag (glutathione S-transferase); vector and linker not restated
T9 sequence (P01031 33-111): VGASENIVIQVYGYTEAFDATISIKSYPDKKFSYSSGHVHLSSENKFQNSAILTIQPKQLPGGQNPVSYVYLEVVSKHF

recombinant human C5 [7] = target: T10, recombinant human C5 (human, UniProt P01031 20-1676); assay: SPR (Biacore), 37C, association and dissociation at pH 5.8, Ab on ProA/G
T10 construct: Also used for the C5 of normal human serum in the functional rows; also called hC5; rhC5
Procedure: (§2) The kinetic parameters of anti-C5 antibodies against recombinant human C5 were assessed at 37° C. using BIACORE® T200 instrument (GE Healthcare) at three different conditions; (1) both association and dissociation were at pH7.4, (2) both association and dissociation were at pH5.8, and (3) association was at pH7.4 but dissociation was at pH5.8. ProA/G (Pierce) was immobilized onto a CM1 sensorchip using amine coupling kit (GE Healthcare) according to the recommended settings by GE Healthcare. Antibodies and analytes for condition (1) and (3) were diluted in ACES pH7.4 buffer (20 mM ACES, 150 mM NaCl, 1.2 mM CaCl₂, 0.05% Tween 20, 0.005% NaN₃) and for condition (2) they were diluted in ACES pH5.8 buffer (20 mM ACES, 150 mM NaCl, 1.2 mM CaCl₂, 0.05% Tween 20, 0.005% NaN₃). […] The surface was regenerated using 25 mM NaOH. Kinetic parameters at condition (1) and (2) were determined by fitting the sensorgrams with a 1:1 binding model and the dissociation rate at condition (3) was determined by fitting the sensorgrams with a 1:1 dissociation for MCK model using BIACORE® T200 Evaluation software, version 2.0 (GE Healthcare). pH dependency of all antibodies were shown as ratio of dissociation rate of condition (2) and (1).

recombinant human C5 [8] = target: T10, recombinant human C5; assay: SPR (Biacore), 37C, association and dissociation at pH 7.4, Ab on ProA/G
Procedure: as §2

recombinant human C5 [9] = target: T10, recombinant human C5; assay: SPR (Biacore), 37C, association at pH 7.4, dissociation at pH 5.8
Procedure: as §2

recombinant human C5 [10] = target: T10, recombinant human C5; assay: SPR (Biacore), ratio of dissociation rates of conditions (2) and (1)
Procedure: as §2

Row | binding result (161-340) | binding result (481-660) | binding result (321-500) | Kd [1] [nM] | binding result [2] | binding result [3] | binding result [4] | binding result [5] | binding result [6] | koff (recombinant human C5 [7]) [s⁻¹] | kon (recombinant human C5 [7]) [M⁻¹ s⁻¹] | koff (recombinant human C5 [8]) [s⁻¹] | kon (recombinant human C5 [8]) [M⁻¹ s⁻¹] | koff (recombinant human C5 [9]) [s⁻¹] | pH dependency (kd pH 5.8 / kd pH 7.4) (recombinant human C5 [10]) [fold] | Binder
1 | no binding | no binding | no binding | 5.88 | no binding | no binding | no binding | no binding | no binding |  |  |  |  |  |  | CFA0501 (antibody, V domains shown, Chimeric, rabbit V regions; also called CFA0501-F760G4) VH: QSVEESGGRLVTPGTPLTLTCTASGFSLSSYYMNWVRQAPGKGLEWIGMIYGSGATYYASWAKGRFTISKTSSTTVDLKMTSLTTEDTATYFCARQIYSGDNNDNFWGPGTLVTVSS VL: AYDMTQTPASVEVAVGGTVTINCQASESISNWLAWYQQKPGQRPKLLIYRASTLASGVSSRFKGSGSGTQFTLTISGVECDDAATYYCQQDYSSSNVDNTFGGGTKVVVE
2 | no binding | no binding | no binding | 5.44 | no binding | no binding | no binding | no binding | no binding |  |  |  |  |  |  | CFA0538 (antibody, V domains shown, Chimeric, rabbit V regions; also called CFA0538-F760G4) VH: QSVEESGGRLVTPGTPLTLTCTASGFSLSSYYMNWVRQAPGKGLEWIGMIYGSGATYYASWAKGRFTISKTSSTTVDLKMTSLTTEDTATYFCARQIYSGDNNDNFWGPGTLVTVSS VL: AYDMTQTPASVEVAVGGTVTINCQASESISNWLAWYQQKPGQRPKLLIYRASTLASGVSSRFKGSGSGTQFTLTISGVECDDAATYYCQQDYSSSNVDNTFGGGTTVVVE
3 |  |  |  |  |  |  |  |  |  | 0.00818 | 141000 | 0.000467 | 1.44e+06 | 0.0161 | 17.5 | 305LO20-SG115 (antibody, human IgG1, Modified human IgG1 CH SG115, human CL SK1) heavy: QVQLVESGGGLVQPGGSLRLSCAASGFTVHSSYYMAWVRQAPGKGLEWVGAIFTGSGAEYKAEWAKGRVTISKDTSKNQVVLTMTNMDPVDTATYYCASDAGYDYPTHAMHYWGQGTLVTVSSASTKGPSVFPLAPSSKSTSGGTAALGCLVKDYFPEPVTVSWNSGALTSGVHTFPAVLQSSGLYSLSSVVTVPSSSLGTQTYICNVNHKPSNTKVDKKVEPKSCDKTHTCPPCPAPELRRGPKVFLFPPKPKDTLMISRTPEVTCVVVDVSHEDPEVKFNWYVDGVEVHNAKTKPREEQYNSTYRVVSVLTVLHQDWLNGKEYKCKVSNKGLPSSIEKTISKAKGQPREPQVYTLPPSREEMTKNQVSLTCLVKGFYPSDIAVEWESNGQPENNYKTTPPVLDSDGSFFLYSKLTVDKSRWQQGNVFSCSVLHEALHAHYTRKELSLSP light: DIQMTQSPSSLSASVGDRVTITCRASQGISSSLAWYQQKPGQAPRLLIYGASETESGVPSRFSGSGSGTDFTLTISSLQPEDFATYYCQNTKVGSSYGNTFGGGTKVEIKRTVAAPSVFIFPPSDEQLKSGTASVVCLLNNFYPREAKVQWKVDNALQSGNSQESVTEQDSKDSTYSLSSTLTLSKADYEKHKVYACEVTHQGLSSPVTKSFNRGEC
4 | no binding | no binding | no binding | 4.33 | no binding | no binding | no binding | no binding | no binding |  |  |  |  |  |  | CFA0599 (antibody, V domains shown, Chimeric, rabbit V regions; also called CFA0599-F760G4) VH: QSVEESGGRLVTPGTPLTLTCTVSGLSLSDNTMTWVRQAPGKGLEWIGIISFGGDAYYASWAKGRFPISKTSTTVDLRITSPTTEDTATYFCARVGAGNIFWYFDLWGPGTLVTVSS VL: AYDMTQTPASVEVSVGGTVTIKCQASESIYSALAWYQQKPGQPPKLLIYSASTLASGVPSRFKGSGSGTEYTLTISDLECADAATYYCQQYYSSTNVHNSFGGGTTVVVE
5 | no binding | no binding | no binding | 1.57 | no binding | no binding | no binding | no binding | no binding |  |  |  |  |  |  | CFA0666 (antibody, V domains shown, Chimeric, rabbit V regions; also called CFA0666-F760G4) VH: QSVEESGGRLVTPGTPLTLTCTVSGFSLSTYAMGWVRQAPGKGLEWIGTIDTGDNSFYANWAKGRFTISKTSTTVDLKITSPTAEDTATYFCARNDGSVYNLFNLWGPGTLVTVSS VL: DVVMTQTPASVSAAVGGTVTIKCQASENIYSALSWYQQKPGLRPRLLIYYASTLASGVPSRFKGSRSGTEFTLTISDLECADAATYYCQQYYDINSVDNTFGGGTKVVVE
6 |  |  |  |  |  |  |  |  |  | 0.00869 | 109000 | 0.000412 | 1.28e+06 | 0.0161 | 21.1 | 305LO16-SG422 (antibody, human IgG4, V domains shown, Modified human IgG4 CH SG422, human CL SK1) VH: QVQLVESGGGLVQPGRSLRLSCAASGFTVHSSYYMAWVRQAPGKGLEWVGAIFTGSGAEYKAEWVKGRFTISRDNSKNTLYLQMNSLRAEDTAVYYCASDAGYDYPTHAMHYWGRGTLVTVSS VL: DIQMTQSPSSLSASVGDRVTITCRASQGISSSLAWYQQKPGKAPKLLIYGASETESGVPSRFSGSGSGTDFTLTISSLQPEDFATYYCQNTKVGSSYGNTFGGGTKVEIKR

— patent US20180002415A1 (Chugai, published 2018)
